The series is described as follows: melting temperature; melt of duplexes. The conditions noted are these: sodium 0.0675 M; strand 1 µM.
With “CGACGTGCATTATGTGCTG+CAGCACATAACGCACGTCG ((((((((.((((((((((+)))))))))).))))))))”, the melting temperature (Tm) (commonly the temperature at the midpoint of the melting transition) came to 53.8 °C.
The figure for “CGACGTGCTGGATGTGCTG+CAGCACATATGGCACGTCG ((((((((...((((((((+))))))))...))))))))” is 52.7 °C; for “CGACGTGCCGAATGTGCTG+CAGCACATACGGCACGTCG ((((((((((.((((((((+)))))))).))))))))))” it is 60.1 °C.
With “CGACGTGCGGTATGTGCTG+CAGCACATTCCGCACGTCG ((((((((((.((((((((+)))))))).))))))))))” the figure was 60 °C.
With “CGACGTGCTAGATGTGCTG+CAGCACATGTAGCACGTCG ((((((((((.((((((((+)))))))).))))))))))” the figure was 56.8 °C; with “CGACGTGCCAGATGTGCTG+CAGCACATGGGGCACGTCG (((((((((..((((((((+))))))))..)))))))))”, 56.3 °C; with “CGACGTGCTCGATGTGCTG+CAGCACATTTCGCACGTCG ((((((((...((((((((+))))))))...))))))))”, 48.1 °C.
“CGACGTGCGTAATGTGCTG+CAGCACATCATGCACGTCG ((((((((.(.((((((((+)))))))).).))))))))”: the melting temperature (Tm) was found to be 52.3 °C.
“CGACGTGCCGGATGTGCTG+CAGCACATTAGGCACGTCG (((((((((..((((((((+))))))))..)))))))))”: the Tm was 57 °C.
For “CGACGTGCCTTATGTGCTG+CAGCACATTGAGCACGTCG ((((((((...((((((((+))))))))...))))))))”, the Tm is 49.6 °C.
The figure for “CGACGTGCTGGATGTGCTG+CAGCACATGTTGCACGTCG ((((((((...((((((((+))))))))...))))))))” is 51.4 °C.
The figure for “CGACGTGCATCATGTGCTG+CAGCACATATTGCACGTCG (((((((((..((((((((+))))))))..)))))))))” is 50.3 °C.
The figure for “CGACGTGCTCTATGTGCTG+CAGCACATACGGCACGTCG ((((((((..(((((((((+)))))))))..))))))))” is 49.7 °C; for “CGACGTGCCACATGTGCTG+CAGCACATGCAGCACGTCG ((((((((..(((((((((+)))))))))..))))))))” it is 53.6 °C.
Consider “CGACGTGCTTTATGTGCTG+CAGCACATTGCGCACGTCG ((((((((...((((((((+))))))))...))))))))”, for which the Tm came out at 46.4 °C.
With “CGACGTGCTGGATGTGCTG+CAGCACATAAAGCACGTCG (((((((((..((((((((+))))))))..)))))))))” the figure was 55.3 °C.
As for “CGACGTGCGACATGTGCTG+CAGCACATGAGGCACGTCG ((((((((..(((((((((+)))))))))..))))))))”, the Tm was determined as 55.3 °C.
The figure for “CGACGTGCAACATGTGCTG+CAGCACATGGGGCACGTCG ((((((((..(((((((((+)))))))))..))))))))” is 58.9 °C.
With “CGACGTGCTGCATGTGCTG+CAGCACATGTTGCACGTCG ((((((((..(((((((((+)))))))))..))))))))” the figure was 56.4 °C; with “CGACGTGCGCGATGTGCTG+CAGCACATGTCGCACGTCG (((((((((..((((((((+))))))))..)))))))))”, 55.5 °C; with “CGACGTGCCGTATGTGCTG+CAGCACATGGGGCACGTCG (((((((((..((((((((+))))))))..)))))))))”, 57.1 °C.
With “CGACGTGCTTAATGTGCTG+CAGCACATCTTGCACGTCG ((((((((...((((((((+))))))))...))))))))” the figure was 48.9 °C; with “CGACGTGCTCCATGTGCTG+CAGCACATGTTGCACGTCG ((((((((..(((((((((+)))))))))..))))))))”, 52.7 °C.
In the case of “CGACGTGCCACATGTGCTG+CAGCACATAGGGCACGTCG (((((((((..((((((((+))))))))..)))))))))”, the Tm came out at 54.7 °C.
Regarding “CGACGTGCTTTATGTGCTG+CAGCACATGTGGCACGTCG ((((((((...((((((((+))))))))...))))))))”, the Tm is 49.6 °C.
With “CGACGTGCTAGATGTGCTG+CAGCACATAGTGCACGTCG ((((((((...((((((((+))))))))...))))))))” the figure was 46.1 °C; with “CGACGTGCCGTATGTGCTG+CAGCACATTGTGCACGTCG ((((((((...((((((((+))))))))...))))))))”, 45.5 °C.
With “CGACGTGCGTTATGTGCTG+CAGCACATGTCGCACGTCG (((((((((..((((((((+))))))))..)))))))))” the figure was 55 °C; with “CGACGTGCTACATGTGCTG+CAGCACATCCTGCACGTCG ((((((((...((((((((+))))))))...))))))))”, 48.3 °C.
With “CGACGTGCATTATGTGCTG+CAGCACATGCAGCACGTCG ((((((((...((((((((+))))))))...))))))))” the figure was 48.7 °C; with “CGACGTGCAAGATGTGCTG+CAGCACATCGCGCACGTCG ((((((((..(((((((((+)))))))))..))))))))”, 58.4 °C.
Consider “CGACGTGCAGTATGTGCTG+CAGCACATGAGGCACGTCG ((((((((...((((((((+))))))))...))))))))”, for which the Tm was determined as 51.4 °C.
With “CGACGTGCCGAATGTGCTG+CAGCACATAAGGCACGTCG (((((((((..((((((((+))))))))..)))))))))” the figure was 58 °C; with “CGACGTGCGGAATGTGCTG+CAGCACATAAGGCACGTCG ((((((((...((((((((+))))))))...))))))))”, 51.5 °C.
With “CGACGTGCTTCATGTGCTG+CAGCACATTTGGCACGTCG ((((((((...((((((((+))))))))...))))))))” the figure was 48.6 °C; with “CGACGTGCTGCATGTGCTG+CAGCACATCCAGCACGTCG ((((((((((.((((((((+)))))))).))))))))))”, 55.9 °C.
